# What was measured:
# [1] = target: soluble mouse FcRn, GST-tagged (mFcRn heavy chain ectodomains with human β2-microglobulin) (mouse | human) (UniProt Q61559); assay: SPR
# [2] = target: soluble human FcRn, GST-tagged (hFcRn heavy chain ectodomains with human β2-microglobulin) (human) (UniProt P55899); assay: SPR
KD1 (heterogeneous ligand model) [1] [nM],KD2 (heterogeneous ligand model) [1] [nM],KD1 (heterogeneous ligand model) [2] [nM],KD2 (heterogeneous ligand model) [2] [nM],Substance
80.9,400,,,anti-CEA cT84.66 scFv-Fc H435Q (Fc fusion)
1.8,122,9.4,197,anti-CEA cT84.66 scFv-Fc H435R (Fc fusion)
,43.8,,,anti-CEA cT84.66 scFv-Fc WT (nonmutated) (Fc fusion)

# — paper PMC3391105
